Data from patent US20100256338A1 (Hoffmann-La Roche, published 2010).

B1: scFab-XGFR2_2720 (bispecific antibody)
chain 1: not shown
chain 2: DIQMTQSPSSLSASVGDRVTITCRASQGINNYLNWYQQKPGKAPKRLIYNTNNLQTGVPSRFSGSGSGTEFTLTISSLQPEDFATYYCLQHNSFPTFGQGTKLEIKRTVAAPSVFIFPPSDEQLKSGTASVVCLLNNFYPREAKVQWKVDNALQSGNSQESVTEQDSKDSTYSLSSTLTLSKADYEKHKVYACEVTHQGLSSPVTKSFNRGEC
B2: humanized <EGFR>ICR62 (antibody, V domains shown)
VH: QVQLVQSGAEVKKPGSSVKVSCKASGFTFTDYKIHWVRQAPGQGLEWMGYFNPNSGYSTYAQKFQGRVTITADKSTSTAYMELSSLRSEDTAVYYCARLSPGGYYVMDAWGQGTTVTVSS
VL: DIQMTQSPSSLSASVGDRVTITCRASQGINNYLNWYQQKPGKAPKRLIYNTNNLQTGVPSRFSGSGSGTEFTLTISSLQPEDFATYYCLQHNSFPTFGQGTKLEIKR
notes: Humanized rat anti-EGFR antibody, 'wildtype' IgG parent; also called humanized rat anti-EGFR antibody <EGFR>ICR62

What was measured:
EGFR-ECD = target: T1, EGFR-ECD (human, UniProt P00533 25-645); experiment: SPR (Biacore T100), antibody captured by anti-human IgG, EGFR-ECD as analyte, 25 C
T1 construct: extracellular domain; also called human EGF-Receptor

[1] = target: T2, IGF-1R (soluble analyte in SPR) (human, UniProt P08069 31-932, limits assumed); experiment: SPR (Biacore T100), antibody captured by anti-human IgG, IGF-1R as analyte, 25 C
T2 construct: also called human IGF1-Receptor

Binder | Kd (EGFR-ECD) [nM] | Kd [1] [nM]
B1 | 0.5 | 11
B2 | 0.5 | 
